Results: patent publication US11820827B2, “Methods of treating myelodysplastic syndrome and acute myeloid leukemia with nonfucosylated anti-CD70 antibodies” (Seagen Inc., priority 2019, dated 2023)
Values joined by “and” are separate entries in the source; they are usually repeats but may differ in a detail not shown here. Equal values may be shown once.

How the values were obtained:
[1] = test system: FcγRIIIa (F/F low affinity and V/V high affinity alleles); assay: BLI binding affinity to FcγRIIIa (low and high affinity alleles); parameters: species or system human; details: compared with SGN-70
Excerpt: Parameters are listed Table 1. Biotinylated avi-tagged human FcγR-monomeric Fc N297A LALA-PG and Fc receptor neonatal (FcRN) monomeric Fc N297A IHH fusion proteins (designed and expressed at Seattle Genetics) were loaded onto high precision streptavidin biosensors (ForteBio) to responses between 0.3 to 1 nm following a 100 second sensor check in Buffer A (0.1% bovine serum albumin [BSA], 0.02% Tween20, 1× phosphate-buffered saline [PBS] pH 7.4). After another baseline measurement, titrated antibodies were associated for 600, 10, 100, 50, and 10 seconds and dissociated for 1000, 50, 100, 500, and 50 seconds in Buffer B (1% casein, 0.2% Tween20, 1×PBS pH 7.4) for FcγRI, IIa, IIIa, FcRN pH 6, and FcRN pH 7.4, respectively. Prior to analysis, the references were subtracted in each assay. All the sensorgrams were processed with a Y-axis alignment at the start of association and an inter-step dissociation correction. A 1:1 Langmuir isotherm global fit model was used to fit the curves.

[2] = target: T1, high affinity human FcγRIIIa receptor (158V) (Homo sapiens, UniProt P08637, F176V); assay: CHO-FcγRIIIa binding assay by flow cytometry (human receptor); details: compared with SGN-70
T1 construct: expressed in transfected cells; host or cells: CHO
T1 sequence (P08637 17-254 F176V): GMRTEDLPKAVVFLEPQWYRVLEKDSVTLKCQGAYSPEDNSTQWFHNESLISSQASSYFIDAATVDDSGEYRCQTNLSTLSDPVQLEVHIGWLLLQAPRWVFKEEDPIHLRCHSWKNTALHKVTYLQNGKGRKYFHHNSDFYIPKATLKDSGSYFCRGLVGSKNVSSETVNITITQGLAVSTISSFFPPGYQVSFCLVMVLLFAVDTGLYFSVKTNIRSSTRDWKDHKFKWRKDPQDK
Protocol: While BLI methodology is used to assess receptor affinity by monitoring binding kinetics, it is primarily set to monitor monovalent binding. To add to BLI data sets, flow cytometry was also performed (FIGS. 2A and 2B).
The CHO-FcγRIIIa binding assay was conducted as follows: • 1. Thaw cells: Cells were thawed on 11 Jun. 2019, and cultured in culture medium for 1 week to recover from freeze-thaw.
• 2. Wash: 60 million cells were washed 1× in PBS in 50-mL tubes. Cells were counted again and resuspended at 2.2×10^6/mL. Then 0.1 mL was pipetted per well • 3. Make 10× dilutions of antibody: The 10× dilutions were prepared (3 mg/mL, 1 mg/mL, 0.3 mg/mL, 0.1 mg/mL, 0.03 mg/mL, 0.01 mg/mL, 0.003 mg/mL, 0.001 mg/mL, and 0.0003 mg/mL in the dilution plate).
• 4. Aspirate: Wash was aspirated in wells and 100 μL of the corresponding antibody dilutions was pipetted with a multichannel pipet. The corresponding concentrations were 300, 100, 30, 10, 3, 1, […] μg/mL in triplicate. The concentrations were decreased vertically down the 96-well round bottom plate. • 5. […] Analyze samples: Samples were analyzed by flow cytometry in high throughput sampler (HTS) mode on the Attune. Median fluorescence intensity (MFI) was graphed (geomean), and equilibrium dissociation constant (KD) for each was calculated in PRIZM

CD8 T cells in PBMCs = assay: CD8 T cell depletion in PBMCs; assay type: cell-based, human; details: 24 hours
Protocol: At the end of the experiment cells were stained with Zombie Aqua Viability Dye and total viable Treg naïve and memory CD4 and CD8 T cell numbers were assessed. […] Fucosylated (WT Clone 13 IgG1) and nonfucosylated (SEA Clone 13 IgG1) antibodies targeting TIGIT were used as positive controls (FIG. 4E-4H).

[3] = test system: MV-411 acute myeloid leukemia model; assay: Tumor growth in the MV-411 acute myeloid leukemia xenograft model (Example 7); assay type: in vivo, SCID mice; details: for tumor volume, individual animals: h1F6SEA 10 mg/kg Q4dx4
[4] = test system: MOLM-13 CD70+ AML cell line; assay: CDC with normal human serum, MOLM-13; assay type: cell-based; details: normal human serum not heat inactivated
Protocol: (§1) AML cell lines positive for CD70 were fluorescently labeled and treated with increasing concentrations of CD70 directed antibodies. Cells were then exposed to human compliment and lysis determined as release of fluorescent dye.
(§2) The following protocol was used to assess CDC activity on AML cell lines: • 1. Cells were incubated with […] anti-CRP monoclonal antibodies mix (anti-hCD46, anti-hCD55, anti-hCD59) for 30 minutes on ice. • 2. Cells were washed and plated (200,000 cells/well) in media containing non-heat-inactivated serum, Sytox Green (Life technology), and antibodies, which were added at the indicated final concentration, for 2 hours at 37° C. • 3. Cell dead was quantified by detecting Sitox Green fluorescent signal on an Envison plate reader (Perkin Elmer) and normalized over positive control (1% Triton X-100 treated cells).

[5] = test system: NOMO-1 CD70+ AML cell line; assay: CDC with normal human serum, NOMO-1; assay type: cell-based; details: normal human serum not heat inactivated
Protocol: as §1, §2

MV4-11 AML xenograft = assay: Tumor growth in the MV4-11 AML xenograft model, SEA-CD70 and azacitidine (Example 10); assay type: in vivo, SCID mice

B1: SEA-CD70: humanized, nonfucosylated monoclonal IgG1 antibody targeting CD70 (nonfucosylated h1F6) (antibody, chains of the INN, looked up, V domains shown)
VH: QVQLVQSGAEVKKPGASVKVSCKASGYTFTNYGMNWVRQAPGQGLKWMGWINTYTGEPTYADAFKGRVTMTRDTSISTAYMELSRLRSDDTAVYYCARDYGDYGMDYWGQGTTVTVSS
VL: DIVMTQSPDSLAVSLGERATINCRASKSVSTSGYSFMHWYQQKPGQPPKLLIYLASNLESGVPDRFSGSGSGTDFTLTISSLQAEDVAVYYCQHSREVPWTFGQGTKVEIK
modifications: nonfucosylated
[1]
  binding affinity to FcγRIIIA: much higher binding affinity
[2]
  binding affinity to human FcγRIIIa on CHO cells: bound with higher affinity than SGN-70
CD8 T cells in PBMCs; V/V high affinity donor
  CD8+ cell depletion: Neither fucosylated nor nonfucosylated anti-CD70 antibodies depleted CD8+ cells
CD8 T cells in PBMCs; low affinity (F/F 158) donor
  CD8+ cell depletion: Neither fucosylated nor nonfucosylated anti-CD70 antibodies depleted CD8+ cells
[3]; from time to 10× fold change versus untreated, h1F6SEA 10 mg/kg, azacitidine 5 mg/kg
  delay in tumor growth: 18%
[3]; day 9 post implant
  tumor volume, individual animals: 51.0 mm^3 and 59.2 mm^3 and 59.0 mm^3 and 52.1 mm^3 and 54.1 mm^3 and 58.6 mm^3
[3]; day 13 post implant
  tumor volume, individual animals: 47.1 mm^3 and 56.4 mm^3 and 72.6 mm^3 and 48.7 mm^3 and 68.7 mm^3 and 59.9 mm^3
[3]; day 16 post implant
  tumor volume, individual animals: 65.3 mm^3 and 60.4 mm^3 and 98.2 mm^3 and 90.8 mm^3 and 83.5 mm^3 and 67.6 mm^3
[3]; day 20 post implant
  tumor volume, individual animals: 63.1 mm^3 and 42.0 mm^3 and 165.9 mm^3 and 151.0 mm^3 and 142.8 mm^3 and 93.1 mm^3
[3]; day 24 post implant
  tumor volume, individual animals: 161.4 mm^3 and 70.9 mm^3 and 266.6 mm^3 and 336.7 mm^3 and 299.1 mm^3 and 165.4 mm^3
[3]; day 27 post implant
  tumor volume, individual animals: 254.6 mm^3 and 0.0 mm^3 and 392.1 mm^3 and 447.0 mm^3 and 337.6 mm^3 and 231.0 mm^3
[3]; day 30 post implant
  tumor volume, individual animals: 352.6 mm^3 and 0.0 mm^3 and 661.5 mm^3 and 831.7 mm^3 and 494.8 mm^3 and 365.1 mm^3
[3]; day 34 post implant
  tumor volume, individual animals: 666.1 mm^3 and 15.4 mm^3 and 998.9 mm^3 and 1042.3 mm^3 and 655.6 mm^3 and 531.6 mm^3
[3]; day 38 post implant
  tumor volume, individual animals: 988.1 mm^3 and 63.1 mm^3 and 1005.8 mm^3 and 751.7 mm^3
[3]; day 41 post implant
  tumor volume, individual animals: 66.6 mm^3 and 1024.7 mm^3
[3]; h1F6SEA 10 mg/kg, extended the length of the study
  tumor growth delay in one mouse of the group: very robust tumor growth delay
[4]
  cell lysis by complement fixation: lysed in an antibody-specific, dose-dependent manner
[5]
  cell lysis by complement fixation: lysed in an antibody-specific, dose-dependent manner
MV4-11 AML xenograft; antibody 10 mg/kg Q4dx5, azacitidine 2 mg/kg Q1dx5 for 3 cycles
  effect on tumor growth: reduce tumor growth
MV4-11 AML xenograft; from time to 10× fold change compared to untreated control
  delay in tumor growth: 31%
